Laboratory results from patent US20120316071A1 (published 2012).

Target: T1, Recombinant Human DLL4 (delta-like protein 4) (human, UniProt Q9NR61 27-524)
T1 construct: also called rHuman DLL4; Delta-like 4
Assay: ELISA, DLL4 coated on plate, Fab at 100 nM

Row | Binder | ELISA Signal-blank (100 nM Fab)
1 | Fab VH5-51_IGHD5-18*01>3_IGHJ4*01 G100K/G104T G24T/S28R/G35V & V3-4_IGLJ1*01 V91L/S96P (Fab, V domains shown, Fab expressed in E. coli; heavy chain vector adds CH1 with His6 and Flag tags, light chain vector adds lambda CL; Template of the S52, T53 and S57 light chain mutants; also called H:KT TRV & L:LP) VH: EVQLVQSGAEVKKPGESLKISCKTSGYRFTSYWIVWVRQMPGKGLEWMGIIYPGDSDTRYSPSFQGQVTISADKSISTAYLQWSSLKASDTAMYYCARRKYSYTYDYFDYWGQGTLVTVSS VL: QTVVTQEPSFSVSPGGTVTLTCGLSSGSVSTSYYPSWYQQTPGQAPRTLIYSTNTRSSGVPDRFSGSILGNKAALTITGAQADDESDYYCLLYMGPGISYVFGTGTKVTVL | 0.39
2 | Fab VH5-51_IGHD5-18*01>3_IGHJ4*01 G100K/G104T G24T/S28R/G35V & V3-4_IGLJ1*01 V91L/S96P S52D (Fab, V domains shown, Fab expressed in E. coli; heavy chain vector adds CH1 with His6 and Flag tags, light chain vector adds lambda CL; also called H:KT TRV & L:LP S52D) VH: EVQLVQSGAEVKKPGESLKISCKTSGYRFTSYWIVWVRQMPGKGLEWMGIIYPGDSDTRYSPSFQGQVTISADKSISTAYLQWSSLKASDTAMYYCARRKYSYTYDYFDYWGQGTLVTVSS VL: QTVVTQEPSFSVSPGGTVTLTCGLSSGSVSTSYYPSWYQQTPGQAPRTLIYDTNTRSSGVPDRFSGSILGNKAALTITGAQADDESDYYCLLYMGPGISYVFGTGTKVTVL | 0.39
3 | Fab VH5-51_IGHD5-18*01>3_IGHJ4*01 G100K/G104T G24T/S28R/G35V & V3-4_IGLJ1*01 V91L/S96P S52E (Fab, V domains shown, Fab expressed in E. coli; heavy chain vector adds CH1 with His6 and Flag tags, light chain vector adds lambda CL; also called H:KT TRV & L:LP S52E) VH: EVQLVQSGAEVKKPGESLKISCKTSGYRFTSYWIVWVRQMPGKGLEWMGIIYPGDSDTRYSPSFQGQVTISADKSISTAYLQWSSLKASDTAMYYCARRKYSYTYDYFDYWGQGTLVTVSS VL: QTVVTQEPSFSVSPGGTVTLTCGLSSGSVSTSYYPSWYQQTPGQAPRTLIYETNTRSSGVPDRFSGSILGNKAALTITGAQADDESDYYCLLYMGPGISYVFGTGTKVTVL | 0.38
4 | Fab VH5-51_IGHD5-18*01>3_IGHJ4*01 G100K/G104T G24T/S28R/G35V & V3-4_IGLJ1*01 V91L/S96P S52G (Fab, V domains shown, Fab expressed in E. coli; heavy chain vector adds CH1 with His6 and Flag tags, light chain vector adds lambda CL; also called H:KT TRV & L:LP S52G) VH: EVQLVQSGAEVKKPGESLKISCKTSGYRFTSYWIVWVRQMPGKGLEWMGIIYPGDSDTRYSPSFQGQVTISADKSISTAYLQWSSLKASDTAMYYCARRKYSYTYDYFDYWGQGTLVTVSS VL: QTVVTQEPSFSVSPGGTVTLTCGLSSGSVSTSYYPSWYQQTPGQAPRTLIYGTNTRSSGVPDRFSGSILGNKAALTITGAQADDESDYYCLLYMGPGISYVFGTGTKVTVL | 0.53

Other lines, results leading:

Row | ELISA Signal-blank (100 nM Fab) | Binder
5 | 0.45 | Fab VH5-51_IGHD5-18*01>3_IGHJ4*01 G100K/G104T G24T/S28R/G35V & V3-4_IGLJ1*01 V91L/S96P S52N (Fab, V domains shown, Fab expressed in E. coli; heavy chain vector adds CH1 with His6 and Flag tags, light chain vector adds lambda CL; also called H:KT TRV & L:LP S52N) VH: EVQLVQSGAEVKKPGESLKISCKTSGYRFTSYWIVWVRQMPGKGLEWMGIIYPGDSDTRYSPSFQGQVTISADKSISTAYLQWSSLKASDTAMYYCARRKYSYTYDYFDYWGQGTLVTVSS VL: QTVVTQEPSFSVSPGGTVTLTCGLSSGSVSTSYYPSWYQQTPGQAPRTLIYNTNTRSSGVPDRFSGSILGNKAALTITGAQADDESDYYCLLYMGPGISYVFGTGTKVTVL
6 | 0.41 | Fab VH5-51_IGHD5-18*01>3_IGHJ4*01 G100K/G104T G24T/S28R/G35V & V3-4_IGLJ1*01 V91L/S96P S52Y (Fab, V domains shown, Fab expressed in E. coli; heavy chain vector adds CH1 with His6 and Flag tags, light chain vector adds lambda CL; also called H:KT TRV & L:LP S52Y) VH: EVQLVQSGAEVKKPGESLKISCKTSGYRFTSYWIVWVRQMPGKGLEWMGIIYPGDSDTRYSPSFQGQVTISADKSISTAYLQWSSLKASDTAMYYCARRKYSYTYDYFDYWGQGTLVTVSS VL: QTVVTQEPSFSVSPGGTVTLTCGLSSGSVSTSYYPSWYQQTPGQAPRTLIYYTNTRSSGVPDRFSGSILGNKAALTITGAQADDESDYYCLLYMGPGISYVFGTGTKVTVL
7 | 0.44 | Fab VH5-51_IGHD5-18*01>3_IGHJ4*01 G100K/G104T G24T/S28R/G35V & V3-4_IGLJ1*01 V91L/S96P S52V (Fab, V domains shown, Fab expressed in E. coli; heavy chain vector adds CH1 with His6 and Flag tags, light chain vector adds lambda CL; also called H:KT TRV & L:LP S52V) VH: EVQLVQSGAEVKKPGESLKISCKTSGYRFTSYWIVWVRQMPGKGLEWMGIIYPGDSDTRYSPSFQGQVTISADKSISTAYLQWSSLKASDTAMYYCARRKYSYTYDYFDYWGQGTLVTVSS VL: QTVVTQEPSFSVSPGGTVTLTCGLSSGSVSTSYYPSWYQQTPGQAPRTLIYVTNTRSSGVPDRFSGSILGNKAALTITGAQADDESDYYCLLYMGPGISYVFGTGTKVTVL
8 | 0.39 | Fab VH5-51_IGHD5-18*01>3_IGHJ4*01 G100K/G104T G24T/S28R/G35V & V3-4_IGLJ1*01 V91L/S96P S52Q (Fab, V domains shown, Fab expressed in E. coli; heavy chain vector adds CH1 with His6 and Flag tags, light chain vector adds lambda CL; also called H:KT TRV & L:LP S52Q) VH: EVQLVQSGAEVKKPGESLKISCKTSGYRFTSYWIVWVRQMPGKGLEWMGIIYPGDSDTRYSPSFQGQVTISADKSISTAYLQWSSLKASDTAMYYCARRKYSYTYDYFDYWGQGTLVTVSS VL: QTVVTQEPSFSVSPGGTVTLTCGLSSGSVSTSYYPSWYQQTPGQAPRTLIYQTNTRSSGVPDRFSGSILGNKAALTITGAQADDESDYYCLLYMGPGISYVFGTGTKVTVL
9 | 0.32 | Fab VH5-51_IGHD5-18*01>3_IGHJ4*01 G100K/G104T G24T/S28R/G35V & V3-4_IGLJ1*01 V91L/S96P S52K (Fab, V domains shown, Fab expressed in E. coli; heavy chain vector adds CH1 with His6 and Flag tags, light chain vector adds lambda CL; also called H:KT TRV & L:LP S52K) VH: EVQLVQSGAEVKKPGESLKISCKTSGYRFTSYWIVWVRQMPGKGLEWMGIIYPGDSDTRYSPSFQGQVTISADKSISTAYLQWSSLKASDTAMYYCARRKYSYTYDYFDYWGQGTLVTVSS VL: QTVVTQEPSFSVSPGGTVTLTCGLSSGSVSTSYYPSWYQQTPGQAPRTLIYKTNTRSSGVPDRFSGSILGNKAALTITGAQADDESDYYCLLYMGPGISYVFGTGTKVTVL
10 | 0.42 | Fab VH5-51_IGHD5-18*01>3_IGHJ4*01 G100K/G104T G24T/S28R/G35V & V3-4_IGLJ1*01 V91L/S96P S52I (Fab, V domains shown, Fab expressed in E. coli; heavy chain vector adds CH1 with His6 and Flag tags, light chain vector adds lambda CL; also called H:KT TRV & L:LP S52I) VH: EVQLVQSGAEVKKPGESLKISCKTSGYRFTSYWIVWVRQMPGKGLEWMGIIYPGDSDTRYSPSFQGQVTISADKSISTAYLQWSSLKASDTAMYYCARRKYSYTYDYFDYWGQGTLVTVSS VL: QTVVTQEPSFSVSPGGTVTLTCGLSSGSVSTSYYPSWYQQTPGQAPRTLIYITNTRSSGVPDRFSGSILGNKAALTITGAQADDESDYYCLLYMGPGISYVFGTGTKVTVL
